Biological target: TGF-βRII-Fc (muTGFbRII-mFc) (mouse (from the printed name muTGFbRII-mFc)) (UniProt Q62312)
Assay: SPR; Biacore T100; TGF-βRII-Fc captured (~50 RU) by an anti-mouse Fc antibody amine-coupled to a CM5 chip; TGF-β2 injected at 0.04-90 nM (0.12-90 nM used for the fit); HBS-EP with 350 mM NaCl and 0.5 mg/mL BSA; steady-state affinity model

TGF-βRII-Fc (muTGFbRII-mFc) (mouse (from the printed name muTGFbRII-mFc)), sequence (Q62312 24-166): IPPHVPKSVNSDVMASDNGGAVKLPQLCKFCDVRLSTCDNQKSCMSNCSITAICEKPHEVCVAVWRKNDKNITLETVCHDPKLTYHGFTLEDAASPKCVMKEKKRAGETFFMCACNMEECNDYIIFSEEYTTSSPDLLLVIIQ

Substance: Transforming growth factor-β2 (TGF-β2) (ligand)
- Kd: 11.6 nM

Reference: PMC9714796
